Assay results as given in PMC12588282 (Science Advances, 2025).
“And” between values parts separate entries of the source, which are not always exact repeats. Equal values may be shown once.

Experiments:
[1] = target: Fc region of the Xenopus laevis IgX heavy chain (Cχ2, Cχ3, Cχ4 and χtp) (Xenopus laevis); assay: 2D cryo-EM classification
[2] = target: Fragment of Fcχ consisting of Cχ3, Cχ4 and χtp (Xenopus laevis); assay: cryo-EM structure
[3] = target: Fragment of Fcχ consisting of Cχ3, Cχ4 and χtp (Xenopus laevis); assay: 2D cryo-EM classification
[4] = target: Human Fcμ variant with the tailpiece truncated to 13 residues (human); assay: native gel or EMSA
[5] = target: Human Fcμ variant with the tailpiece truncated to 13 residues (human); assay: 2D cryo-EM classification
[6] = target: Human Fcμ variant with the tailpiece truncated to 14 residues (human); assay: native gel or EMSA
[7] = target: Human Fcμ variant with the tailpiece truncated to 14 residues (human); assay: 2D cryo-EM classification
[8] = target: Human Fcμ variant with the tailpiece truncated to 15 residues (human); assay: native gel or EMSA
[9] = target: Human Fcμ variant with the tailpiece truncated to 15 residues (human); assay: 2D cryo-EM classification
[10] = target: Human Fcμ variant with the tailpiece truncated to 16 residues (human); assay: native gel or EMSA
[11] = target: Human Fcμ variant with the tailpiece truncated to 16 residues (human); assay: 2D cryo-EM classification
[12] = target: Human Fcμ variant with the tailpiece truncated to 17 residues (human); assay: 2D cryo-EM classification
[13] = target: Recombinant human Fcμ with an intact 18-amino acid tailpiece (human); assay: AUC
[14] = target: Recombinant human Fcμ with an intact 18-amino acid tailpiece (human); assay: 2D cryo-EM classification
[15] = target: the molecule itself; assay: AUC
[16] = target: the molecule itself; assay: 2D cryo-EM classification

For “Fc region of the Xenopus laevis IgX heavy chain (Cχ2, Cχ3, Cχ4 and χtp) (domain or fragment)”, the stoichiometry N [1] was 6.

Work on “Fragment of Fcχ consisting of Cχ3, Cχ4 and χtp (domain or fragment)” yielded a stoichiometry N [2] of 6 and a stoichiometry N [3] of 6.

Work on “Human Fcμ variant with the tailpiece truncated to 13 residues (domain or fragment)” yielded a stoichiometry N [4] of 6 and a stoichiometry N [5] of 6.

“Human Fcμ variant with the tailpiece truncated to 14 residues (domain or fragment)” gave a stoichiometry N [6] of 6 and a stoichiometry N [7] of 6.

“Human Fcμ variant with the tailpiece truncated to 15 residues (domain or fragment)” was tested, and the stoichiometry N [8] was 6 and the stoichiometry N [9] was 6.

“Human Fcμ variant with the tailpiece truncated to 16 residues (domain or fragment)” gave a stoichiometry N [10] of 6 and a stoichiometry N [11] of 6.

For “Human Fcμ variant with the tailpiece truncated to 17 residues (domain or fragment)”, the stoichiometry N [12] was 6 and 5.

In the case of “Recombinant human Fcμ with an intact 18-amino acid tailpiece (domain or fragment)”, the stoichiometry N [13] is reported as 4 and 5 and 6 and the stoichiometry N [14] is reported as 6 and 4 and 5.

B1: Human Fcμ variant with the tailpiece truncated to 11 residues (domain or fragment)
chain: IAELPPKVSVFVPPRDGFFGNPRKSKLICQATGFSPRQIQVSWLREGKQVGSGVTTDQVQAEAKESGPTTYKVTSTLTIKESDWLGQSMFTCRVDHRGLTFQQNASSMCVPDQDTAIRVFAIPPSFASIFLTKSTKLTCLVTDLTTYDSVTISWTRQNGEAVKTHTNISESHPNATFSAVGEASICEDDWNSGERFTCTVTHTDLPSPLKQTISRPKGVALHRPDVYLLPPAREQLNLRESATITCLVTGFSPADVFVQWMQRGQPLSPEKYVTSAPMPEPQAPGRYFAHSILTVSEEEWNTGETYTCVVAHEALPNRVTERTVDKSTGKPTLYNVSLVMS
modifications: glycosylation at Asn563
B1 was tested, and the “stoichiometry N” value [15] was 6.

B2: Human Fcμ variant with the tailpiece truncated to 10 residues (domain or fragment)
chain: IAELPPKVSVFVPPRDGFFGNPRKSKLICQATGFSPRQIQVSWLREGKQVGSGVTTDQVQAEAKESGPTTYKVTSTLTIKESDWLGQSMFTCRVDHRGLTFQQNASSMCVPDQDTAIRVFAIPPSFASIFLTKSTKLTCLVTDLTTYDSVTISWTRQNGEAVKTHTNISESHPNATFSAVGEASICEDDWNSGERFTCTVTHTDLPSPLKQTISRPKGVALHRPDVYLLPPAREQLNLRESATITCLVTGFSPADVFVQWMQRGQPLSPEKYVTSAPMPEPQAPGRYFAHSILTVSEEEWNTGETYTCVVAHEALPNRVTERTVDKSTGKPTLYNVSLVM
With B2 the “stoichiometry N” value [16] was 6 and 4.

B3: Human Fcμ variant with the tailpiece truncated to 12 residues (domain or fragment)
chain: IAELPPKVSVFVPPRDGFFGNPRKSKLICQATGFSPRQIQVSWLREGKQVGSGVTTDQVQAEAKESGPTTYKVTSTLTIKESDWLGQSMFTCRVDHRGLTFQQNASSMCVPDQDTAIRVFAIPPSFASIFLTKSTKLTCLVTDLTTYDSVTISWTRQNGEAVKTHTNISESHPNATFSAVGEASICEDDWNSGERFTCTVTHTDLPSPLKQTISRPKGVALHRPDVYLLPPAREQLNLRESATITCLVTGFSPADVFVQWMQRGQPLSPEKYVTSAPMPEPQAPGRYFAHSILTVSEEEWNTGETYTCVVAHEALPNRVTERTVDKSTGKPTLYNVSLVMSD
For B3, the “stoichiometry N” value [16] was 6.
